Test results as given in the supplement of paper PMC9732359.
± gives the uncertainty stated by the source.

Experiment: protein stability index of a GFP-peptide fusion (yeast GPS) (PSI 1-4); higher = more stable; sorted into four equal gates, so the index is relative within each strain
In short: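 The protein stability index of a peptide was calculated by multiplying its read frequency in each gate by that gate's number and adding the products. The peptides were tiled 17-residue stretches of yeast proteins, fused downstream of GFP on a Cherry-expressing plasmid and carried in yeast as a pooled library. Mid-log cultures in leucine-free medium were sorted into four equal gates by GFP/Cherry ratio, and each gate's plasmids were PCR-amplified and Illumina-sequenced.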

Row | Sequence | protein stability index (doa10∆) | protein stability index (pdr5∆) | protein stability index (san1∆) | protein stability index (ubr1∆)
1 | VTVVDTPPVVVVGVVGY [RPL3] | 1.17 ± 0.051 | 1.41 ± 0.061 | 1.26 ± 0.065 | 1.39 ± 0.048
2 | GRETILSNFNADINLEE [SIR3] | 3.14 ± 0.094 | 3.17 ± 0.11 | 2.85 ± 0.067 | 2.99 ± 0.07
3 | EEIEPKLEKLRNEKRMF [SMC2] | 2.89 ± 0.11 | 3.21 ± 0.074 | 3.02 ± 0.1 | 3.21 ± 0.079
4 | MSQSTASLVPEGNQGSL [MED8] | 3.16 ± 0.12 | 2.97 ± 0.1 | 2.62 ± 0.096 | 2.76 ± 0.13
5 | VKGKNCVVLGCERRSTL [PRE6] | – | – | 2.84 ± 0.23 | –
6 | ADVFRRCLVAVIQQDKY [SRP72] | 1.6 ± 0.11 | 2.17 ± 0.066 | 1.86 ± 0.1 | 2.74 ± 0.18
7 | LLDKYGKTGLSNMILGS [YML103C/NUP188] | 2.34 ± 0.078 | 2.75 ± 0.11 | 2.26 ± 0.095 | 2.12 ± 0.058
8 | MKPSEILSLIEEAAGTK [SMC2] | 3.24 ± 0.1 | 3.23 ± 0.084 | 3.22 ± 0.083 | 3.22 ± 0.064
9 | SFNMAQIPQQLYQSLTP [SNF5] | 2.16 ± 0.067 | 2.35 ± 0.072 | 2.14 ± 0.054 | 2.12 ± 0.047
10 | KIRPWRTFRLNECVCTP [RPO31] | 1.31 ± 0.065 | 1.99 ± 0.064 | 1.73 ± 0.18 | 1.24 ± 0.092
11 | GLRTENVLDYFAESPFF [MED6] | 3.35 ± 0.12 | 3.25 ± 0.18 | 2.94 ± 0.077 | 2.83 ± 0.047
12 | IKCSQSSHLSDNDFIIN [POP5] | 2.96 ± 0.09 | 2.85 ± 0.059 | 2.66 ± 0.059 | 2.55 ± 0.041
13 | AEEIGVEHLLRDVRDQA [RPN8] | 3.2 ± 0.14 | – | 2.96 ± 0.15 | –
14 | HKMSMMAHRVKVIPYST [RPO21] | 2.47 ± 0.065 | 2.64 ± 0.062 | 2.82 ± 0.079 | 2.44 ± 0.084
15 | KSPSLTAQKYPIYTGDG [YMR153W/NUP53] | 2.33 ± 0.055 | 2.19 ± 0.051 | 2.08 ± 0.069 | 2.01 ± 0.036
16 | IRVAETRGGASALIENN [YJL039C/NUP192] | 2.39 ± 0.071 | 2.46 ± 0.089 | 3.1 ± 0.072 | 2.89 ± 0.055
17 | LGRTGSRGGVTQVRVEF [RPS28A] | 3.29 ± 0.053 | 3.19 ± 0.053 | 3.31 ± 0.047 | 3.19 ± 0.044
18 | EEKLKANKEKKKAEKAA [RPL24A] | 3.23 ± 0.07 | 3.33 ± 0.11 | 3.28 ± 0.043 | 3.48 ± 0.067
19 | SEEIDSLNEDVEEIKLQ [SMC2] | 3.19 ± 0.12 | 3.41 ± 0.14 | 2.94 ± 0.097 | 3.25 ± 0.077
20 | NVMLNIYPRTVIDIEIH [SKI6] | 1.35 ± 0.039 | 1.74 ± 0.046 | 1.58 ± 0.11 | 1.76 ± 0.034
21 | VLCTRLRLSNFFTIDHF [SIR2] | 2.19 ± 0.064 | 1.5 ± 0.057 | 1.5 ± 0.097 | 1.28 ± 0.033
22 | LVYQYKGAGLSMGTMIC [PRE2] | 2.06 ± 0.083 | 2.3 ± 0.097 | 2.18 ± 0.16 | 2.24 ± 0.11

Row | Sequence | protein stability index (doa10∆) | protein stability index (pdr5∆) | protein stability index (san1∆) | protein stability index (ubr1∆)
23 | MAESLVDLEEVMDTIQE [SSN8] | – | 3.02 ± 0.16 | 3.2 ± 0.19 | 3.2 ± 0.093
24 | QIAAQSPVELSRMFEEV [SMC1] | 3.19 ± 0.14 | 3.2 ± 0.079 | 3.14 ± 0.058 | 3.27 ± 0.075
25 | NTNNINNSSSGMNNASA [YGL172W/NUP49] | 3.33 ± 0.11 | 3.17 ± 0.079 | 3.25 ± 0.056 | 3.22 ± 0.094
26 | VYEYVIASTLGPSAMRL [RPC82] | 2.38 ± 0.21 | – | 1.6 ± 0.14 | 1.23 ± 0.097
27 | SYNNTGISDDENDEEDI [RRP4] | 2.85 ± 0.11 | 3.27 ± 0.12 | 2.84 ± 0.086 | 2.96 ± 0.099
28 | ESILQMNQGEGEPEAGN [RPC34] | 3 ± 0.2 | 3.18 ± 0.093 | 3.46 ± 0.26 | 3 ± 0.13
29 | QLIPIILRQRGPGFKFV [SRB4] | 2.55 ± 0.11 | 1.65 ± 0.073 | 1.47 ± 0.19 | 1.69 ± 0.078
30 | QITKFPKYRDNLATWYH [SSN3] | 2.77 ± 0.065 | 2.88 ± 0.077 | 2.7 ± 0.066 | 2.37 ± 0.041
31 | DDINKAKAVWENIIIVG [ARP9] | 1.58 ± 0.05 | 2.17 ± 0.082 | 1.67 ± 0.092 | 2.03 ± 0.073
32 | EDSENPSDWQRNSFIRD [ITC1] | 3.1 ± 0.082 | 3.12 ± 0.069 | 3.14 ± 0.065 | 3.27 ± 0.067
33 | MAHRVKVIPYSTFRLNL [RPO21] | 1.87 ± 0.07 | 1.82 ± 0.071 | 1.2 ± 0.12 | 2.29 ± 0.095
34 | EIMEERNVEQKLNELDE [NNF1] | 3.11 ± 0.08 | 2.94 ± 0.077 | 3.13 ± 0.052 | 3.27 ± 0.045
35 | LANRSKENFILDSLMKT [YJL039C/NUP192] | 2.47 ± 0.095 | 2.64 ± 0.12 | 3.03 ± 0.12 | 2.69 ± 0.069
36 | QSSLDVAGLEDKFRKAC [SIR3] | 3.62 ± 0.14 | 3.18 ± 0.16 | 3.42 ± 0.13 | 3.06 ± 0.21
37 | PGRKYTTLGKLSTSVGW [RPL16A] | 2.92 ± 0.089 | 2.78 ± 0.092 | 2.2 ± 0.23 | 2.47 ± 0.091
38 | PRFLNKQERSKQERLKE [PRP28] | 1.91 ± 0.091 | 2.53 ± 0.13 | 3.34 ± 0.11 | 2.13 ± 0.089
39 | VYPITLSTDATSADLKS [UBP6] | 2.32 ± 0.063 | 2.53 ± 0.063 | 2.49 ± 0.078 | 2.4 ± 0.059
40 | EISASESKFILEALRQN [RRP45] | 2.94 ± 0.096 | 2.98 ± 0.12 | 2.88 ± 0.094 | 2.81 ± 0.074
41 | ESLVHSALCILKEQELV [BRR2] | 2.35 ± 0.2 | 1.77 ± 0.079 | 1.92 ± 0.14 | 2.51 ± 0.13
42 | VPRKFKHFIQGGSFGNR [RPL7A] | 3.36 ± 0.13 | 2.85 ± 0.1 | 3.13 ± 0.12 | 2.17 ± 0.055
43 | ESAFENLMGNRNNHNSN [SNF12] | – | – | – | 3.44 ± 0.21
